Reference: PMC8977243 (Journal of molecular biology, 2022)

B1: His6-ERK2 (enzyme, rat, UniProt P63086 1-358, looked up)
chain: MAAAAAAGPEMVRGQVFDVGPRYTNLSYIGEGAYGMVCSAYDNLNKVRVAIKKISPFEHQTYCQRTLREIKILLRFRHENIIGINDIIRAPTIEQMKDVYIVQDLMETDLYKLLKTQHLSNDHICYFLYQILRGLKYIHSANVLHRDLKPSNLLLNTTCDLKICDFGLARVADPDHDHTGFLTEYVATRWYRAPEIMLNSKGYTKSIDIWSVGCILAEMLSNRPIFPGKHYLDQLNHILGILGSPSQEDLNCIINLKARNYLLSLPHKNKVPWNRLFPNADSKALDLLDKMLTFNPHKRIEVEQALAHPYLEQYYDPSDEPIAEAPFKFDMELDDLPKEKLKELIFEETARFQPGYRS

Columns and labels:
MBP-arrestin-2 = MBP-arrestin-2 (bovine, UniProt P17870 1-418); experiment: pull-down
His6-ERK2 = target: B1; experiment: peptide or protein array

Binder | binding result (MBP-arrestin-2) | binding result (His6-ERK2)
B1 | binds | 
CKVYTLTPFLANNRE [arrestin-2-derived peptide CKVYTLTPFLANNRE] |  | binds
